# From patent US20210155689A1 (SHANGHAI PHARMAEXPLORER, published 2021)
# Assays:
# [1] = target: T1, human LAG-3 on cells (HEK293-hLAG-3 stable cell line) (human, UniProt P18627 23-525); assay: FACS, HEK293-hLAG-3, antibody 0 nM
# T1 sequence: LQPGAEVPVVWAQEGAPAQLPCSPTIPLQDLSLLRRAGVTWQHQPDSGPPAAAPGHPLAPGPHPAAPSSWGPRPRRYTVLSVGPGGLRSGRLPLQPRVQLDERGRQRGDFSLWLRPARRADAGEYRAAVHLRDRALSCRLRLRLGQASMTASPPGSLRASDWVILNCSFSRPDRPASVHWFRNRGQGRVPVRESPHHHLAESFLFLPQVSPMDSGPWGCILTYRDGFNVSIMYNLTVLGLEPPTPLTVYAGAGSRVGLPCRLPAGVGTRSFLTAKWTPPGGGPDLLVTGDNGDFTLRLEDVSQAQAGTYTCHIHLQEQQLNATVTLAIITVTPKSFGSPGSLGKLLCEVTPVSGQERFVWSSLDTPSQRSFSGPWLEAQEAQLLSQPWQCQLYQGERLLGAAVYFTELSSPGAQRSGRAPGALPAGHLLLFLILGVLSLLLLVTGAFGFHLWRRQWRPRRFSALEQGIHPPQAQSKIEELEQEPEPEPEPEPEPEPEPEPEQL
# [2] = target: T1, human LAG-3 on cells (HEK293-hLAG-3 …); assay: FACS, HEK293-hLAG-3, antibody 8 nM
# [3] = target: T1, human LAG-3 on cells (HEK293-hLAG-3 …); assay: FACS, HEK293-hLAG-3, antibody 40 nM
# [4] = target: T1, human LAG-3 on cells (HEK293-hLAG-3 …); assay: FACS, HEK293-hLAG-3, antibody 1.6 nM
# [5] = target: T1, human LAG-3 on cells (HEK293-hLAG-3 …); assay: FACS, HEK293-hLAG-3, antibody 0.32 nM
# [6] = target: T1, human LAG-3 on cells (HEK293-hLAG-3 …); assay: FACS, HEK293-hLAG-3, antibody 0.013 nM
# [7] = target: T1, human LAG-3 on cells (HEK293-hLAG-3 …); assay: FACS, HEK293-hLAG-3, antibody 0.064 nM
# [8] = target: T1, human LAG-3 on cells (HEK293-hLAG-3 …); assay: FACS, HEK293-hLAG-3, antibody 0 nM; remark: listed apart in the source
# [9] = target: T1, human LAG-3 on cells (HEK293-hLAG-3 …); assay: FACS, HEK293-hLAG-3, antibody 8 nM; remark: listed apart in the source
# Excerpt: (§1) A. The binding of antibodies to LAG-3 expressing cells was detected by Flow cytometry (FACS), wherein the method was according to that of Example 5.
# [10] = target: T1, human LAG-3 on cells (HEK293-hLAG-3 …); assay: FACS, HEK293-hLAG-3, antibody 40 nM; remark: listed apart in the source
# Excerpt: as §1
# [11] = target: T1, human LAG-3 on cells (HEK293-hLAG-3 …); assay: FACS, HEK293-hLAG-3, antibody 1.6 nM; remark: listed apart in the source
# [12] = target: T1, human LAG-3 on cells (HEK293-hLAG-3 …); assay: FACS, HEK293-hLAG-3, antibody 0.32 nM; remark: listed apart in the source
# Excerpt: as §1
# [13] = target: T1, human LAG-3 on cells (HEK293-hLAG-3 …); assay: FACS, HEK293-hLAG-3, antibody 0.013 nM; remark: listed apart in the source
# Excerpt: as §1
# [14] = target: T1, human LAG-3 on cells (HEK293-hLAG-3 …); assay: FACS, HEK293-hLAG-3, antibody 0.064 nM; remark: listed apart in the source
# Excerpt: as §1
# [15] = target: T2, human LAG-3 ECD (antigen protein of the affinity test) (human, UniProt P18627 23-450); assay: SPR, CM5 chip, antibody captured by anti-human Fc IgG, antigen in flow, 1:1 fit
# T2 sequence: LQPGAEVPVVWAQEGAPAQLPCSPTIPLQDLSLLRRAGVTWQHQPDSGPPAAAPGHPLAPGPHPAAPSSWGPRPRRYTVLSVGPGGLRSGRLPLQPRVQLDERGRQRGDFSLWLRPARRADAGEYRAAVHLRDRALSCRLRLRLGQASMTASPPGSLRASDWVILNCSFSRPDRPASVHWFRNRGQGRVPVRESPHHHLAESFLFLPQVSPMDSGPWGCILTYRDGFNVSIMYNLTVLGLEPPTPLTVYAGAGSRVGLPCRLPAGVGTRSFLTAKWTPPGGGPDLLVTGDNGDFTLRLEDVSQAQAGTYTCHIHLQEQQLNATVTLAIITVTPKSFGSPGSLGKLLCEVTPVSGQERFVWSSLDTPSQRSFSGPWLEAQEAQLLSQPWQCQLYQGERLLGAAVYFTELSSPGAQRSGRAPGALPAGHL
# Experimental: First, anti-human Fc IgG was immobilized on the surface of the CM5 chip to 6000-10000 RU by amino coupling method, with FC1 as the reference channel. The coupling process was as follows: a freshly prepared 1:1 mixture of 50 mM NHS and 200 mM EDC was activated for 7 minutes, then injected with 10-50 ug/ml anti-human Fc IgG diluted in 10 mM sodium acetate ph5.0 buffer. The remaining activated sites were blocked with 1M ethanolamine. Then, HBS-EP+ buffer was used to dilute the antibody to be tested to 5 ug/ml (adjustable according to the capture level) and the antibodies were captured on the chip at a flow rate of 10 ul/min to obtain a response value of about 100˜300 RU. Then the antigen protein was diluted to 100 nM (the highest concentration was tentatively 100 nM), and flew through the chip surface at a flow rate of 30 ul/min. If enough signal value was obtained, the antigen-protein was diluted by several concentration gradients, and flew through the chip surface respectively. At the end of each cycle, the chip surface was regenerated with 10 mM Glycine at pH 1.5. The kinetic rate constant needed to be subtracted from the blank control, and the data was fitted with the global fit analysis method 1:1 combination model. The dissociation equilibrium rate constant (KD) was calculated according to the following formula: KD=kd/ka.
Binder,Mean fluorescence intensity [1],Mean fluorescence intensity [2],Mean fluorescence intensity [3],Mean fluorescence intensity [4],Mean fluorescence intensity [5],Mean fluorescence intensity [6],Mean fluorescence intensity [7],Mean fluorescence intensity [8],Mean fluorescence intensity [9],Mean fluorescence intensity [10],Mean fluorescence intensity [11],Mean fluorescence intensity [12],Mean fluorescence intensity [13],Mean fluorescence intensity [14],Kd [15] [nM],koff [15] [s⁻¹],kon [15] [M⁻¹ s⁻¹]
"556F6B8-6 humanized antibody (antibody, V domains shown) VH: QVQLQESGPGLVKPSETLSLTCTVSGFSIIKYGVHWIRQPPGKGLEWIGVIWRGGITDYNAAFMSRVTISVDTSKNQFSLKLSSVTAADTAVYYCARWDGPLAMDYWGQGTTVTVSS VL: DIVLTQSPSFLSASVGDRVTITCKASQDVGTTVAWYQQKPGKAPKLLIYWASTRHTGVPSRFSGSGSGTEFTLTISSLQPEDFATYYCQQYSSYPYTFGQGTKLEIK",4,39,50,23,10,4,6,–,–,–,–,–,–,–,–,–,–
"556F6B8-2 humanized antibody (antibody, V domains shown) VH: QVQLQESGPGLVKPSETLSLTCTVSGFSIIKYGVHWIRQPPGKGLEWIGVIWRGGITDYNAAFMSRVTISVDTSKNQFSLKLSSVTAADTAVYYCARWDGPLAMDYWGQGTTVTVSS VL: DIQLTQSPSFLSASVGDRVTITCKASQDVGTTVAWYQQKPGKAPKLLIYWASTRHTGVPSRFSGSGSGTEFTLTISSLQPEDFATYYCQQYSSYPYTFGQGTKLEIK",4,37,49,23,10,4,5,–,–,–,–,–,–,–,–,–,–
"556F6B8-1 humanized antibody (antibody, V domains shown) VH: QVQLQESGPGLVKPSETLSLTCTVSGGSISKYGVHWIRQPPGKGLEWIGVIWRGGITDYNAAFMSRVTISVDTSKNQFSLKLSSVTAADTAVYYCARWDGPLAMDYWGQGTTVTVSS VL: DIQLTQSPSFLSASVGDRVTITCKASQDVGTTVAWYQQKPGKAPKLLIYWASTRHTGVPSRFSGSGSGTEFTLTISSLQPEDFATYYCQQYSSYPYTFGQGTKLEIK",4,19,33,9,5,4,4,–,–,–,–,–,–,–,–,–,–
"556F6B8-4 humanized antibody (antibody, V domains shown) VH: RVQLQESGPGLVKPSETLSLTCTVSGFSLIKYGVHWIRQPPGKGLEWIGVIWRGGITDYNAAFMSRVTISKDTSKSQVSLKLSSVTAADTAVYYCAKWDGPLAMDYWGQGTTVTVSS VL: DIQLTQSPSFLSASVGDRVTITCKASQDVGTTVAWYQQKPGKAPKLLIYWASTRHTGVPSRFSGSGSGTEFTLTISSLQPEDFATYYCQQYSSYPYTFGQGTKLEIK",4,77,82,62,32,7,14,–,–,–,–,–,–,–,–,–,–
"405B8H3-2 humanized antibody (antibody, V domains shown) VH: QVQLVQSGAEVKKPGASVKVSCKASGYTFTDYEMHWVRQAPGQGLEWMGATDPETGNSAYNQKFKGRVTMTADKSTSTVYMELSSLRSEDTAVYYCISTGWNDWGQGTTVTVSS VL: DIQMTQSPSSLSASVGDRVTITCKASQDINSYLSWFQQKPGKAPKSLIYRADRLLDGVPSRFSGSGSGTDFTLTISSLQPEDFATYYCLQYDEFPYTFGQGTKLEIK",–,–,–,–,–,–,–,4,245,272,188,82,11,27,1.68,0.000184,110000
"405B8H3-6 humanized antibody (antibody, V domains shown) VH: QVQLVQSGAEVKKPGASVKVSCKASGYTFTDYEMHWVRQAPGQGLEWMGATDPETGNSAYNQKFKGRVTMTADKSTSTVYMELSSLRSEDTAVYYCISTGWNDWGQGTTVTVSS VL: DIQMTQSPSSLSASVGDRVTITCKASQDINSYLSWFQQKPGKAPKSLIYRADRLLDGVPSRFSGSGSGQDYTLTISSLQPEDFATYYCLQYDEFPYTFGQGTKLEIK",–,–,–,–,–,–,–,4,242,254,179,66,9,21,2.04,0.000193,94900
"405B8H3-7 humanized antibody (antibody, V domains shown) VH: QVQLVQSGAEVKKPGASVKVSCKASGYTFTDYEMHWVRQAPGQGLEWIGATDPETGNSAYNQKFKGRATMTADKSTSTAYMELSSLRSEDTAVYYCISTGWNDWGQGTTVTVSS VL: DIQMTQSPSSLSASVGDRVTITCKASQDINSYLSWFQQKPGKAPKSLIYRADRLLDGVPSRFSGSGSGQDYTLTISSLQPEDFATYYCLQYDEFPYTFGQGTKLEIK",–,–,–,–,–,–,–,4,230,252,163,62,9,21,3.28,0.000316,96400
"405B8H3-1 humanized antibody (antibody, V domains shown) VH: QVQLVQSGAEVKKPGASVKVSCKASGYTFTDYEMHWVRQAPGQGLEWMGATDPETGNSAYNQKFKGRVTMTRDTSTSTVYMELSSLRSEDTAVYYCISTGWNDWGQGTTVTVSS VL: DIQMTQSPSSLSASVGDRVTITCKASQDINSYLSWFQQKPGKAPKSLIYRADRLLDGVPSRFSGSGSGTDFTLTISSLQPEDFATYYCLQYDEFPYTFGQGTKLEIK",–,–,–,–,–,–,–,4,244,257,178,73,11,26,2.54,0.000254,100000
